Data taken from the RNAGym collection of RNA variant scans (doi:10.1021/acssynbio.7b00057).

B1: Pistol ribozyme (parent)
chain: GGGUCGUUGUUCCAUAAUCGCGUGGAUAUGGCACGCAAGUUUCUACCGGGCACCGUAAAUGUCCGACUGGAGCCGUUCGGGCGGCUAUAAACAGACCUCAGGCCCGAAGCGUGGCGGCACCUGCCGCCGGUGGUAAAAAAGAUCGGAAGAGCACACGUCU

Variants of: B1
Test: aptazyme ON/OFF ratio, guanine; higher = stronger switching; co-transcriptional cleavage with and without guanine

First: U7G U8C G9A U10C U11A C12A C13U
Second: U7G U8C G9A U10C U11A C12A C13G
The “aptazyme ON/OFF ratio” value of the first is higher: 1.14 for the first, 1.11 for the second.

Compared with U7G U8C G9A U10C U11A C12A C13A, U7G U8C G9A U10C U11A C12G C13A is lower in “aptazyme ON/OFF ratio” value: 1.15 for the first, 1.06 for the second.

Compared with U7G U8C G9A U10C U11A C12G C13U, U7G U8C G9A U10C U11A C12G C13G is lower in “aptazyme ON/OFF ratio” value: 1.33 for the first, 1.21 for the second.

U7G U8C G9A U10G U11C C12U C13A and U7G U8C G9A U10G U11C C12U C13U are the same in “aptazyme ON/OFF ratio” value: 1.12 for the first, 1.12 for the second.

First: U7G U8C G9A U10G U11C C12U C13G
Second: U7G U8C G9A U10G C13G
The “aptazyme ON/OFF ratio” value of the first is lower: 1.16 for the first, 1.19 for the second.

Going from U7G U8C G9A U10G C13A to U7G U8C G9A U10G C13U, the “aptazyme ON/OFF ratio” value falls from 1.28 to 1.26.

First: U7G U8C G9A U10A C12U C13U
Second: U7G U8C G9A U10A C12U C13A
The “aptazyme ON/OFF ratio” value of the first is lower: 1.05 for the first, 1.15 for the second.

Going from U7G U8C G9A U10A C12U C13G to U7G U8A U11A C13U, the “aptazyme ON/OFF ratio” value rises from 1.13 to 1.4.

Going from U7G U8A U11A C13G to U7G U8A U11A C13A, the “aptazyme ON/OFF ratio” value rises from 1.15 to 1.45.

First: U7G U8C C13G
Second: U7G U8C C13A
The “aptazyme ON/OFF ratio” value of the first is lower: 1.07 for the first, 1.21 for the second.

Compared with U7G U8C C13U, U7G U8C G9A U10A U11G C12A is lower in “aptazyme ON/OFF ratio” value: 1.46 for the first, 1.06 for the second.

Compared with U7G U8C G9A U10A U11G C12G, U7G U8C G9A U10A U11G C12U is higher in “aptazyme ON/OFF ratio” value: 1.19 for the first, 1.26 for the second.

First: U7G U8C G9A U10C U11G C12A C13A
Second: U7G U8C G9A U10C U11G C12A C13G
The “aptazyme ON/OFF ratio” value of the first is higher: 1.11 for the first, 1.08 for the second.

Compared with U7G U8C G9A U10C U11G C12A C13U, U7G U8A U10G U11C C12U C13A is higher in “aptazyme ON/OFF ratio” value: 1.16 for the first, 1.46 for the second.

Going from U7G U8A U10G U11C C12U C13U to U7G U8A U10G U11C C12U C13G, the “aptazyme ON/OFF ratio” value rises from 1.1 to 1.52.

First: U7G U8C G9A U10A U11G C13U
Second: U7G U8C G9A U10A U11G C13A
The “aptazyme ON/OFF ratio” value of the first is higher: 1.23 for the first, 1.13 for the second.

Compared with U7G U8C G9A U10A U11G C13G, U7G U8C G9A U10A U11A C12G C13A is higher in “aptazyme ON/OFF ratio” value: 1.04 for the first, 1.13 for the second.

First: U7G U8C G9A U10A U11A C12G C13G
Second: U7G U8C G9A U10A U11A C12G C13U
The “aptazyme ON/OFF ratio” value of the first is lower: 1.13 for the first, 1.15 for the second.

Going from U7G U8C G9A U10C C12U to U7G U8C G9A U10C C12G, the “aptazyme ON/OFF ratio” value falls from 1.37 to 1.29.

Going from U7G U8C G9A U10C C12A to U7G U8A U10G U11G C13U, the “aptazyme ON/OFF ratio” value rises from 1.18 to 1.42.

First: U7G U8A U10G U11G C13A
Second: U7G U8A U10G U11G C13G
The “aptazyme ON/OFF ratio” value of the first is lower: 1.28 for the first, 1.43 for the second.

First: U7G U8C G9A U10C U11C C13G
Second: U7G U8C G9A U10C U11C C13U
The “aptazyme ON/OFF ratio” value of the first is higher: 1.03 for the first, 1.01 for the second.

Compared with U7G U8C G9A U10C U11C C13A, U7G U8A U11G C13G is higher in “aptazyme ON/OFF ratio” value: 1.02 for the first, 1.15 for the second.

First: U7G U8A U11G C13A
Second: U7G U8A U11G C13U
The “aptazyme ON/OFF ratio” value of the first is lower: 1.2 for the first, 1.21 for the second.

Going from U7G U8C G9A U10G U11G C12A C13A to U7G U8C G9A U10G U11G C12A C13G, the “aptazyme ON/OFF ratio” value falls from 1.13 to 1.1.

Compared with U7G U8C G9A U10G U11G C12A C13U, U7G U8A U10G U11G C12U C13A is higher in “aptazyme ON/OFF ratio” value: 1.3 for the first, 1.44 for the second.

Going from U7G U8A U10G U11G C12U C13U to U7G U8A U10G U11G C12U C13G, the “aptazyme ON/OFF ratio” value falls from 1.65 to 1.16.

Compared with U7G U8C G9A C13G, U7G U8C G9A C13U is higher in “aptazyme ON/OFF ratio” value: 1.03 for the first, 1.22 for the second.

Compared with U7G U8C G9A C13A, U7G U8C G9A U11A C12U C13G is lower in “aptazyme ON/OFF ratio” value: 1.09 for the first, 1.08 for the second.

Compared with U7G U8C G9A U11A C12U C13A, U7G U8C G9A U11A C12U C13U is lower in “aptazyme ON/OFF ratio” value: 1.09 for the first, 1.05 for the second.

Compared with U7G U8C C12U, U7G U8C C12A is lower in “aptazyme ON/OFF ratio” value: 1.2 for the first, 1.05 for the second.

First: U7G U8C C12G
Second: U7G U8C G9A U10G U11G C12A
The “aptazyme ON/OFF ratio” value of the first is lower: 1.12 for the first, 1.3 for the second.

First: U7G U8C G9A U10G U11G C12G
Second: U7G U8C G9A U10G U11G C12U
The “aptazyme ON/OFF ratio” value of the first is lower: 1.27 for the first, 1.35 for the second.

First: U7G U8C C12U C13A
Second: U7G U8C C12U C13U
The “aptazyme ON/OFF ratio” value of the first is lower: 1.05 for the first, 1.07 for the second.

Going from U7G U8C C12U C13G to U7G U8C G9A C12G, the “aptazyme ON/OFF ratio” value falls from 1.19 to 1.07.

First: U7G U8C G9A C12U
Second: U7G U8C G9A C12A
The “aptazyme ON/OFF ratio” value of the first is higher: 1.07 for the first, 1.06 for the second.

Going from U7G U8C G9A U11C C12U C13G to U7G U8C G9A U11C C12U C13A, the “aptazyme ON/OFF ratio” value rises from 1.12 to 1.15.

First: U7G U8C G9A U11C C12U C13U
Second: U7G U8A U10G U11C C12U
The “aptazyme ON/OFF ratio” value of the first is lower: 1.08 for the first, 1.27 for the second.

First: U7G U8C G9A U10G C12A
Second: U7G U8C G9A U10G C12G
The “aptazyme ON/OFF ratio” value of the first is higher: 1.18 for the first, 1.13 for the second.

Compared with U7G U8C G9A U10G C12U, U7G U8C G9A U10A U11A C12U C13A is lower in “aptazyme ON/OFF ratio” value: 1.35 for the first, 1.13 for the second.

Going from U7G U8C G9A U10A U11A C12U C13G to U7G U8C G9A U10A U11A C12U C13U, the “aptazyme ON/OFF ratio” value falls from 1.15 to 1.14.

With U7G U8C G9A U10C U11C C12A the “aptazyme ON/OFF ratio” value was 1.16.
